Measured values from patent publication US20250340655A1, “EPHA2-TARGETING ANTIBODIES AND THEIR APPLICATIONS IN CANCER TREATMENT” (TAIPEI MEDICAL UNIVERSITY, priority 2022, published 2025).

Assays:
Assay in all cases: flow cytometry on 293T cells overexpressing EphA1-A8
[1] = target: T1, EphA4 overexpressed on 293T cells (UniProt P54764 20-986, limits assumed)
T1 construct: whole, on cells
Method: (§1) To detect the binding specificity of scFv, 293T cells were transformed with EphA1-A8 plasmids individually for overexpression of different EphA molecules. The cell line was freshly prepared and washed with FACS buffer (2% FBS in PBS). The cells were seeded at 1×10⁵ cells/well into a 96-well Ubottom plate and incubated with scFv for 1 h at 4° C. After the plate was washed with FACS buffer, the anti-hemagglutinin (HA) antibody was added for scFv binding detection (scFv was fused with a HA tag) and subsequently developed using an FITC-conjugated secondary antibody. Finally, the cell binding signal was analyzed using a FACS can flow cytometer.

[2] = target: T2, EphA6 overexpressed on 293T cells (UniProt Q9UF33 23-1036, limits assumed)
T2 construct: whole, on cells
T2 sequence (looked up): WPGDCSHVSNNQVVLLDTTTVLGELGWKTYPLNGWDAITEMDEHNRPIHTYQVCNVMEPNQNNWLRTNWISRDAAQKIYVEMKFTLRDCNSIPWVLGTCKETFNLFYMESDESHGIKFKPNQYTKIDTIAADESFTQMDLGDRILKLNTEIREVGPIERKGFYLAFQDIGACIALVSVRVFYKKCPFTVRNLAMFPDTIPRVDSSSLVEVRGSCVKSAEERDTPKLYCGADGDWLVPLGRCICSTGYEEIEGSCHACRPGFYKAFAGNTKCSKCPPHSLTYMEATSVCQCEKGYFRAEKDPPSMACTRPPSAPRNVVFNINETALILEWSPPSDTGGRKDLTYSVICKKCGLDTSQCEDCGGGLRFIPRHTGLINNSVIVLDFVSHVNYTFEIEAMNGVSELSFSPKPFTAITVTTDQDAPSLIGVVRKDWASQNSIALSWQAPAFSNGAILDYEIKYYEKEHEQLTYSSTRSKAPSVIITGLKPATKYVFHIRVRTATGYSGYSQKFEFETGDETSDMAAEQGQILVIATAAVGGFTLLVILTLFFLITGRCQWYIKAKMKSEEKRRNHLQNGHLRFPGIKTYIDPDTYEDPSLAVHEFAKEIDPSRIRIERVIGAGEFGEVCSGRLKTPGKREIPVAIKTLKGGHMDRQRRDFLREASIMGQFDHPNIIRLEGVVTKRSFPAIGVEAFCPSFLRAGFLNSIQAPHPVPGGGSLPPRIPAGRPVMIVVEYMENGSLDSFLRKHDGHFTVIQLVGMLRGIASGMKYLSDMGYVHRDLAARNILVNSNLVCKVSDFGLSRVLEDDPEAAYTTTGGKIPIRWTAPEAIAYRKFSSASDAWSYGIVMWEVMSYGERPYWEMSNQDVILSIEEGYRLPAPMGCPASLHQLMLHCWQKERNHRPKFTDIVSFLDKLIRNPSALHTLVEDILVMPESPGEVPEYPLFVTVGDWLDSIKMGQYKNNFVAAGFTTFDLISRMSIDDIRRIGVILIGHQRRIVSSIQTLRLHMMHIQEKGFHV
Method: as §1

[3] = target: T3, EphA8 overexpressed on 293T cells (UniProt P29322 28-1005, limits assumed)
T3 construct: whole, on cells
T3 sequence (looked up): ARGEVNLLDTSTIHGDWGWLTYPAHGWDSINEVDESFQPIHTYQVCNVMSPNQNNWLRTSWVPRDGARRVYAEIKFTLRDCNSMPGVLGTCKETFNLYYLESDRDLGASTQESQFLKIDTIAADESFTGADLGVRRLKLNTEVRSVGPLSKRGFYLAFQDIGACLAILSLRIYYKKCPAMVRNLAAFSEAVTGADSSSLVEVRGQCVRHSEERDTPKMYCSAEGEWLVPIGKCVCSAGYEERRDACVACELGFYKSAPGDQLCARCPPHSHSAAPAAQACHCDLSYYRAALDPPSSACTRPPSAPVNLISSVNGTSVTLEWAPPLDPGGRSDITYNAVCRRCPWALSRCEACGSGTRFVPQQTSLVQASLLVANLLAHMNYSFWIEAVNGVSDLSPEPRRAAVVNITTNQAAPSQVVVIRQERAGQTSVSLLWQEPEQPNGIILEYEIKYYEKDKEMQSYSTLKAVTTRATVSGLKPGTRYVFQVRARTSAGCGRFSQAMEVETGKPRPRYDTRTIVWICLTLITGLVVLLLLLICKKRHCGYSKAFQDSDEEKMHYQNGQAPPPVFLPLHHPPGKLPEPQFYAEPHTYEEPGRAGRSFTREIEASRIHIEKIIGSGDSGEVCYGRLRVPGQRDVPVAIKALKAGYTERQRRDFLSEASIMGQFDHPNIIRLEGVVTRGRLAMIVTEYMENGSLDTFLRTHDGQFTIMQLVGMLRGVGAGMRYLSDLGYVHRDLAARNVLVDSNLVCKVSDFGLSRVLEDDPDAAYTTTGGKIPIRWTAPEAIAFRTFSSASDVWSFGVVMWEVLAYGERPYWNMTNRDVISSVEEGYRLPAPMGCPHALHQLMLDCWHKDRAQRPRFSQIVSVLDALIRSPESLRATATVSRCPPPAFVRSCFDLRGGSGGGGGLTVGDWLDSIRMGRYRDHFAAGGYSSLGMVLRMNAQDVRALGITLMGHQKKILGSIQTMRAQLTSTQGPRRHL
Method: as §1

Measured: binding result

T1 sequence (P54764 20-986 limits assumed): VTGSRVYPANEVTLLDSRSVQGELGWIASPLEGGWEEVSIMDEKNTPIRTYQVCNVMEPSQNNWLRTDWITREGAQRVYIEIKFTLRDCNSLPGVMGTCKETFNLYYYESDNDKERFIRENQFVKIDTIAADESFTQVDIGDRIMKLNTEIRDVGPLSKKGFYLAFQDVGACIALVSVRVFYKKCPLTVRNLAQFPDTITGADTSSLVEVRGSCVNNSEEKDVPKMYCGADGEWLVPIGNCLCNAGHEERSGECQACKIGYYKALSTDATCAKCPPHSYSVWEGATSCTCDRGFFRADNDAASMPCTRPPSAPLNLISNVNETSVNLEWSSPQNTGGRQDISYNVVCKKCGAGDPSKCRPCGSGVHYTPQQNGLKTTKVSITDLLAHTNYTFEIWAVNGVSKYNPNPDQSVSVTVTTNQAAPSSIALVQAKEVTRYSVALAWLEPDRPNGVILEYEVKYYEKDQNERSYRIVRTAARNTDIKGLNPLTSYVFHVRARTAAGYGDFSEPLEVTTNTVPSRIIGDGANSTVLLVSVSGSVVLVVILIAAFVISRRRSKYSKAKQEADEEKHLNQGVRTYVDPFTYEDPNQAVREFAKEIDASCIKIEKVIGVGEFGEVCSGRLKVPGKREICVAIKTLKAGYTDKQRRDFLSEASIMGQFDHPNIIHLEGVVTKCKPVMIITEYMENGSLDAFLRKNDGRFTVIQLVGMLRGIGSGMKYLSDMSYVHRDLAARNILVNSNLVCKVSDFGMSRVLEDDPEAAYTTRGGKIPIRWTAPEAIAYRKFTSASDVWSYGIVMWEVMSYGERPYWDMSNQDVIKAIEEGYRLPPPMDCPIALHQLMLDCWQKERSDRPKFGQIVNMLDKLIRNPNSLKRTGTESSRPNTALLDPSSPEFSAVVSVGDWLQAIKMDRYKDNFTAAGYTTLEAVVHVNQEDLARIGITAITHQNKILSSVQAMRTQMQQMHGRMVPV

B1: Humanized scFv hSD5 (scFv)
scFv: LTQPPSVSVSPGQTVRITCSGSSGSYGWYQQKSPGQAPVTLIYDNDKRPSGIPERFSGSSSGSTSTLTISGVQAEDEADYYCGSADSSTYVGMFGGGTKLTVLGQSSRSSQVQLVESGGGLVQPGGSLRLSCAASGFTFSDYGMGWVRQAPGKGLEWVAGISAAGSFTPYGAAVKGRFTISRDNSKNTVYLQMNSLRAEDTAVYYCARIPSGYRAGEIYTWGQGTLVTVSS
notes: also called hSD5 scFv; Humanized scFv hSDS
no binding: [1] | [2] | [3]
